The source of these data is the supplement of paper PMC10126150.

The data set deals with ATP. Put plainly: switch fluorescence ratio, 500 uM ATP over buffer (Cy3 cluster intensity, sum of 5 cycles each) (fold (ratio)); higher = stronger signal-on switching upon ATP binding; sequences stand for … in TCGTCGGCAGCGTCAGATGTGTATAAGAGACAGTTTTTTTTTTTTTTTTTTTTTTTTT…TC. Conditions: aptamer strand: ATP DNA aptamer (quencher-CACCTGGGGGAGTATTGCGGAGGAAGG + anchor), 100 nM annealed; ATP concentration: 500 uM. The essentials:
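For every switch-domain sequence, the fluorescence ratio is the mean of per-cluster values, each being summed target-cycle Cy3 intensity over summed buffer-cycle Cy3 intensity. Clusters outside 100-1000 RFU were excluded. On a modified Illumina MiSeq flow-cell, the Cy3-labelled switching-strand clusters were annealed to 100 nM quencher-labelled ATP aptamer, imaged in selection buffer and then after 15 min with 500 uM ATP at 22 °C. Five such cycles were run, with NaOH stripping and re-annealing between them.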

± gives the standard deviation of the averaged measurements.
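Also: ATP exposure 15 min at 22 °C before imaging.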

With ATCTCCGGTT, the switch fluorescence ratio was 1.1 ± 0.17.

On to ATCTCTTTCT, for which the switch fluorescence ratio amounted to 1.04 ± 0.019.

With ATCTGACTCC, the switch fluorescence ratio came out at 2.52 ± 0.19.

For ATCTGATGCG, the switch fluorescence ratio is 0.981 ± 0.1.

As to ATCTGCCTGC, the switch fluorescence ratio amounted to 1.074 ± 0.009.

Turning to ATCTGGGCGG, the switch fluorescence ratio came to 0.997 ± 0.029.

Regarding ATCTGGGGAA, the switch fluorescence ratio was 1.01 ± 0.045.

In the case of ATCTGGTAAT, the switch fluorescence ratio was 1.005 ± 0.0031.

ATCTGGTTTG: the switch fluorescence ratio was 0.955 ± 0.023.

ATCTGTAAGG: the switch fluorescence ratio worked out at 1.02 ± 0.043.

With ATCTGTAGGG, the switch fluorescence ratio came to 1.023 ± 0.0075.

For ATCTGTCAGT, the switch fluorescence ratio came to 0.9807 ± 0.0092.

For ATCTGTTAGG, the switch fluorescence ratio came to 1.03 ± 0.041.

For ATCTTAATTG, the switch fluorescence ratio was 1.005 ± 0.0075.

For the sequence ATCTTATGTT, the switch fluorescence ratio came out at 0.987 ± 0.025.

As to ATCTTTCCTG, the switch fluorescence ratio came out at 1.053 ± 0.0087.

With ATCTTTTTCT, the switch fluorescence ratio amounted to 1.03 ± 0.052.

For the sequence ATGAAAATGG, the switch fluorescence ratio was found to be 0.971 ± 0.019.

ATGAAAGACG: the switch fluorescence ratio came out at 1.04 ± 0.075.

On to ATGAAAGTAT, for which the switch fluorescence ratio worked out at 1.011 ± 0.0061.

For the sequence ATGAACTAGG, the switch fluorescence ratio came to 0.991 ± 0.022.

As to ATGAAGACGG, the switch fluorescence ratio was 1.03 ± 0.059.

With ATGAAGGATG, the switch fluorescence ratio was 1.01 ± 0.02.

As for ATGAAGGGAG, the switch fluorescence ratio is 0.991 ± 0.061.

Turning to ATGAAGTGGA, the switch fluorescence ratio amounted to 0.9555 ± 0.0093.

As to ATGAAGTTTT, the switch fluorescence ratio came to 1.02 ± 0.028.

Regarding ATGAATGAGT, the switch fluorescence ratio stood at 0.985 ± 0.016.

ATGAATGCGG: the switch fluorescence ratio was determined as 0.99 ± 0.0094.

As for ATGAATTGGA, the switch fluorescence ratio was found to be 0.989 ± 0.017.

For ATGACAGAAG, the switch fluorescence ratio turned out to be 1.03 ± 0.05.

For the sequence ATGACCTTCA, the switch fluorescence ratio amounted to 2.1 ± 0.078.

Turning to ATGACGGAGC, the switch fluorescence ratio was 1.94 ± 0.31.

ATGACGGTGG: the switch fluorescence ratio is 0.94 ± 0.014.

In the case of ATGAGAAGAC, the switch fluorescence ratio stood at 1.02 ± 0.021.

On to ATGAGAGGAA, for which the switch fluorescence ratio is 0.981 ± 0.028.

As for ATGAGAGGAT, the switch fluorescence ratio came to 0.9797 ± 0.0026.

ATGAGATTCG: the switch fluorescence ratio amounted to 0.99 ± 0.026.

For ATGAGCTGTG, the switch fluorescence ratio is 1.01 ± 0.056.

Turning to ATGAGGATGT, the switch fluorescence ratio is 1 ± 0.019.

Take ATGAGGGATT: the switch fluorescence ratio worked out at 0.965 ± 0.011.

Turning to ATGAGGGGTG, the switch fluorescence ratio came out at 1.013 ± 0.0076.

Take ATGAGGTCGT: the switch fluorescence ratio stood at 1.008 ± 0.007.

For the sequence ATGAGTGGCT, the switch fluorescence ratio came out at 0.999 ± 0.054.

In the case of ATGAGTTTTC, the switch fluorescence ratio came out at 1.024 ± 0.0043.

For ATGATACCTT, the switch fluorescence ratio turned out to be 1.17 ± 0.019.

In the case of ATGATAGGGG, the switch fluorescence ratio is 0.998 ± 0.023.

Regarding ATGATATTAG, the switch fluorescence ratio was found to be 1.004 ± 0.0066.

As to ATGATCAACG, the switch fluorescence ratio came out at 0.999 ± 0.015.

On to ATGATCAGCT, for which the switch fluorescence ratio was 0.9824 ± 0.0077.

As for ATGATCCCCG, the switch fluorescence ratio amounted to 1.05 ± 0.025.

Consider ATGATCGCGT, for which the switch fluorescence ratio was 1.01 ± 0.024.

Consider ATGATCTAGT, for which the switch fluorescence ratio is 1.03 ± 0.064.

In the case of ATGATCTCCG, the switch fluorescence ratio amounted to 1.32 ± 0.017.

As for ATGATGAAGA, the switch fluorescence ratio was determined as 1.02 ± 0.019.

For ATGATGAAGT, the switch fluorescence ratio worked out at 1.02 ± 0.017.

On to ATGATGGGGT, for which the switch fluorescence ratio is 1.01 ± 0.06.

With ATGATGTGAG, the switch fluorescence ratio was 1.01 ± 0.051.

In the case of ATGATTATAT, the switch fluorescence ratio was found to be 0.99 ± 0.017.

ATGATTCAGC: the switch fluorescence ratio was 1.03 ± 0.083.

With ATGATTCTGT, the switch fluorescence ratio is 1 ± 0.021.

Regarding ATGATTGCAC, the switch fluorescence ratio worked out at 1.01 ± 0.057.

Regarding ATGATTGTCG, the switch fluorescence ratio is 0.994 ± 0.017.

Regarding ATGATTTGGC, the switch fluorescence ratio worked out at 1.04 ± 0.048.

For ATGATTTTAG, the switch fluorescence ratio stood at 1 ± 0.031.

On to ATGATTTTGG, for which the switch fluorescence ratio was 0.992 ± 0.023.

As to ATGCAATTTT, the switch fluorescence ratio was 1.017 ± 0.0034.
